Source: patent US20090300780A1 (AbbVie / Abbott, published 2009)

Target: T1, murine NGF purified from submandibular glands (murine, UniProt P01139 122-239, limits assumed)
T1 construct: Native protein purified from tissue; also called NGF neurotrophin
Test: ELISA, murine NGF coated at 10 ug/ml, COS supernatants with IgG1, detection by anti-human Cgamma, OD450
Description: For immobilization on plastic, 96 well Maxi sorb plates were incubated at 4° C. overnight with a solution containing the respective ligands of the two antibodies (the purified recombinant immunoadhesin TrkA Camel and the murine NGF purified from submandibular glands) at a concentration of 10 μg/ml in 0.1M pH 9.6 sodium carbonate buffer.
After one hour of blocking with PBS containing 3% milk (MPBS) at ambient temperature, concentrated supernatants were incubated with serial dilutions (1:2, 1.20; 1:200) and in parallel also with the supernatant of non transfected COS cells (negative control).

T1 sequence (P01139 122-239 limits assumed): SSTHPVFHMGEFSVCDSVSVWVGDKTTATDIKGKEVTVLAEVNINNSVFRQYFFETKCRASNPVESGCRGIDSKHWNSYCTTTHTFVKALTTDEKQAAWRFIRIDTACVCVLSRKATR

B1: alpha D11 humanized antibody (Hum alpha D11), IgG1 form (antibody, V domains shown)
VH: EVQLVESGGGLVQPGGSLRLSCAASGFSLTNNNVNWVRQAPGKGLEWVGGVWAGGATDYNSALKSRFTISRDNSKNTAYLQMNSLRAEDTAVYYCARDGGYSSSTLYAMDAWGQGTLVTVSS
VL: DIQMTQSPSSLSASVGDRVTITCRASEDIYNALAWYQQKPGKAPKLLIYNTDTLHTGVPSRFSGSGSGTDYTLTISSLQPEDFATYFCQHYFHYPRTFGQGTKVEIK
notes: also called Hum αD11; Hum alpha D11 VH / Hum alpha D11Vk
binding result: binds
